Test results reported in publication PMC10126157, “High concentrations of soluble endoglin can inhibit BMP9 signaling in non-endothelial cells” (Scientific Reports, 2023).

Molecular target: T1, sENG-Fc (soluble endoglin Fc fusion) (human, UniProt P17813 26-586)
T1 construct: soluble endoglin (ENG, CD105) fused to Fc, recombinant human protein from R&D Systems; Construct limits are known only through the catalogue number; source: bought: R&D Systems (Cat.# 6578-EN), recombinant human protein
T1 sequence (looked up): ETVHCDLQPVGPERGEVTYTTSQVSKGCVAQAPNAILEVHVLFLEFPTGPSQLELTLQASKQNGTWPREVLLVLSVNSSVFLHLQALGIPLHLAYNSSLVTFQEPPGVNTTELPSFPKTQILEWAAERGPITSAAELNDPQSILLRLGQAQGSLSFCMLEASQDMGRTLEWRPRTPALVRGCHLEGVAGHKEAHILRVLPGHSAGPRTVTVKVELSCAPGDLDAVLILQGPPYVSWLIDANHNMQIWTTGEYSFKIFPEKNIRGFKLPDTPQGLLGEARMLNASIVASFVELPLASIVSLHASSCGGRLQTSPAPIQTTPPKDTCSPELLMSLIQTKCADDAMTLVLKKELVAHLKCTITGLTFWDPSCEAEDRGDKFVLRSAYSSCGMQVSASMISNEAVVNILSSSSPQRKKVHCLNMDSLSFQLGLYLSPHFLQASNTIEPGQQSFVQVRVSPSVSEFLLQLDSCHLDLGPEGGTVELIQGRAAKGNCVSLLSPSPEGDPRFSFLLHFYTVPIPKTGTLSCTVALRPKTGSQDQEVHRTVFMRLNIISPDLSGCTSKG
Experiment: ELISA; ActRIIA-Fc coated on MaxiSorp plates (1 ug/mL in PBS, overnight, 4 °C), blocked with 1% BSA; BMP9 (15 ng/mL) added with increasing concentrations of sENG(M), sENG(D) or sENG-Fc; bound BMP9 detected with BMP-9 DuoSet ELISA reagents
Details: both partners purified

- binding result: binds
B1: Bone morphogenetic protein 9 (BMP9) (ligand, human, UniProt Q9UK05 320-429, looked up)
chain: SAGAGSHCQKTSLRVNFEDIGWDSWIIAPKEYEAYECKGGCFFPLADDVTPTKHAIVQTLVHLKFPTKVGKACCVPTKLSPISVLYKDDMGVPTLKYHYEGMSVAECGCR
notes: BMP9 (GDF2), recombinant human protein from R&D Systems; source: bought: R&D Systems (Cat.# 3209-BP), recombinant human protein
